The experiment addresses Vps24 (full-length, two-hybrid fusion) (A. nidulans). Nature of the experiment: two-hybrid.

Turning to Vps4 (two-hybrid fusion) (enzyme), the fold lower β-galactosidase activity than with DidB^Did2 turned out to be 30 fold.

B1: PalB-(1–130) prey (two-hybrid fusion) (domain or fragment)
chain: MSRTSSAPSQKSLISRALKAERDVITASSQSQALDAAIDAAEHYMKALALTSSSKDRNVLDAKCKEWLTRAEKIKGSEDWRSVAQSRRSRLRTPASTRKLTTREDIILLQGAKLNGFIFPPWKAEPSLTE
As for B1, the fold β-galactosidase activity with Vps24 over that with DidB came to 10 fold.

The record behind these values is article PMC2640967.
